Results: patent publication US20250276018A1 (AFFYIMMUNE THERAPEUTICS, published 2025)
Substitutions are numbered along the chain they refer to. In names and notes the source's numbering stands.

B1: Affy6-I3G CAR (other)
chain: GSEQKLISEEDLGSQVQLVQSGAEVKKPGASVKVSCKASGYIFTAYTMHWVRQAPGQGLEWMGWIKPNNGLANYAQKFQGRVTMTRDTSISTAYMELSRLRSDDTAVYYCARSEGTTEFDYWGQGTLVTVSSGGGGSGGGGSGGGGSDIVLTQSPDSLAVSLGERATINCKSSESVDSYANSFMHWYQQKPGQPPKLLIYRASTRESGVPDRFSGSGSRTDFTLTISSLQAEDVAVYYCQQSKEDPLTFGGGTKVEIKASTTTPAPRPPTPAPTIASQPLSLRPEACRPAAGGAVHTRGLDFACDFWVLVVVGGVLACYSLLVTVAFIIFWVRSKRSRLLHSDYMNMTPRRPGPTRKHYQPYAPPRDFAAYRSLRVKFSRSADAPAYQQGQNQLYNELNLGRREEYDVLDKRRGRDPEMGGKPRRKNPQEGLYNELQKDKMAEAYSEIGMKGERRRGKGHDGLYQGLSTATKDTYDALHMQALPPR
notes: CAR on transduced human T cells; I to G in HC CDR3; P2A remnant not included; also called MycT-Affy6-I3G CAR-SSTR2
B2: Affy6-I3W CAR (other)
chain: B1 chain with G115W
notes: CAR on transduced human T cells; I to W in HC CDR3; P2A remnant not included; also called MycT-Affy6-I3W CAR-SSTR2

What was measured:
[1] = target: T1, c-MET on human target cells (human, UniProt P08581 25-1390); experiment: cell-based or functional assay
T1 sequence (P08581 25-1390): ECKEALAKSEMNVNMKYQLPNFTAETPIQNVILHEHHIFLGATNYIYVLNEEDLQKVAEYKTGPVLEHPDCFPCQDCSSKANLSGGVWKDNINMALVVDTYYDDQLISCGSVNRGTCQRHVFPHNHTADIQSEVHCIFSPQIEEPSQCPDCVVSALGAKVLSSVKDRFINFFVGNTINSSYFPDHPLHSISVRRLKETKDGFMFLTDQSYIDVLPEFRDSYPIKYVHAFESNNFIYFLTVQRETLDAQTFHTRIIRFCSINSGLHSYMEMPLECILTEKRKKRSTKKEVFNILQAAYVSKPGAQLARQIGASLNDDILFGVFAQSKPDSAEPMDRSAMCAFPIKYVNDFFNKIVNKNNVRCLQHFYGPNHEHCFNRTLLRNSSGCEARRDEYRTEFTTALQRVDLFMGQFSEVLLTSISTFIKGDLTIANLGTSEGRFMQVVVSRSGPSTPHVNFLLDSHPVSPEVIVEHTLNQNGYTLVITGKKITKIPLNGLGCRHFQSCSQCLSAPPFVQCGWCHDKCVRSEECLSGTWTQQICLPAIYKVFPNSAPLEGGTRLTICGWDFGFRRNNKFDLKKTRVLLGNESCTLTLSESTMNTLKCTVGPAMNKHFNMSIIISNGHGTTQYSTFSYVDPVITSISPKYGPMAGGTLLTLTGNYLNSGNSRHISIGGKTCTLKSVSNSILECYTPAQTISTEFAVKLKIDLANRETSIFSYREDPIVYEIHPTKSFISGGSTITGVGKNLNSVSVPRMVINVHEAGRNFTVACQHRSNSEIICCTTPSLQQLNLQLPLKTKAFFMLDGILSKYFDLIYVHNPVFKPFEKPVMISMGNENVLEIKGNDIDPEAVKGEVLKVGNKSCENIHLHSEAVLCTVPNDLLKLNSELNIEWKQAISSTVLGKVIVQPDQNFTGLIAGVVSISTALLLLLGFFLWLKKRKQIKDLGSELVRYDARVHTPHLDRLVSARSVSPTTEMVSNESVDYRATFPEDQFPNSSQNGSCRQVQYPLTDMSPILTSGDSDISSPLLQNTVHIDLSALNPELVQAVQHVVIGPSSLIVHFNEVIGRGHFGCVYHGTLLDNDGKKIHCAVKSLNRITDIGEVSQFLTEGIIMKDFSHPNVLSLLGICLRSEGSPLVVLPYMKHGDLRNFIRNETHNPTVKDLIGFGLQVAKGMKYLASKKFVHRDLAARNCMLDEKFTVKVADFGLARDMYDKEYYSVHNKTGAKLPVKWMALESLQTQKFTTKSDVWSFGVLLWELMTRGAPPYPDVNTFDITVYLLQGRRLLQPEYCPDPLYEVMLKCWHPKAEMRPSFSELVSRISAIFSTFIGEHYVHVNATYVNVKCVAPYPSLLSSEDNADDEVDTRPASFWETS

[2] = target: T1, c-MET on human target cells; experiment: cell-based or functional assay; remark: listed apart in the source
[3] = target: T1, c-MET on human target cells; experiment: cell-based or functional assay; remark: listed apart in the source
[4] = target: T2, AF647 labeled c-met protein (UniProt P08581 25-932, limits assumed, labeled with AlexaFluor 647 (AF647)); experiment: flow cytometry, AF647-labeled c-met protein titrated on CAR-T cells (Round 2)
T2 construct: Soluble labeled c-met protein titrated on CAR-T cells
T2 sequence (P08581 25-932 limits assumed): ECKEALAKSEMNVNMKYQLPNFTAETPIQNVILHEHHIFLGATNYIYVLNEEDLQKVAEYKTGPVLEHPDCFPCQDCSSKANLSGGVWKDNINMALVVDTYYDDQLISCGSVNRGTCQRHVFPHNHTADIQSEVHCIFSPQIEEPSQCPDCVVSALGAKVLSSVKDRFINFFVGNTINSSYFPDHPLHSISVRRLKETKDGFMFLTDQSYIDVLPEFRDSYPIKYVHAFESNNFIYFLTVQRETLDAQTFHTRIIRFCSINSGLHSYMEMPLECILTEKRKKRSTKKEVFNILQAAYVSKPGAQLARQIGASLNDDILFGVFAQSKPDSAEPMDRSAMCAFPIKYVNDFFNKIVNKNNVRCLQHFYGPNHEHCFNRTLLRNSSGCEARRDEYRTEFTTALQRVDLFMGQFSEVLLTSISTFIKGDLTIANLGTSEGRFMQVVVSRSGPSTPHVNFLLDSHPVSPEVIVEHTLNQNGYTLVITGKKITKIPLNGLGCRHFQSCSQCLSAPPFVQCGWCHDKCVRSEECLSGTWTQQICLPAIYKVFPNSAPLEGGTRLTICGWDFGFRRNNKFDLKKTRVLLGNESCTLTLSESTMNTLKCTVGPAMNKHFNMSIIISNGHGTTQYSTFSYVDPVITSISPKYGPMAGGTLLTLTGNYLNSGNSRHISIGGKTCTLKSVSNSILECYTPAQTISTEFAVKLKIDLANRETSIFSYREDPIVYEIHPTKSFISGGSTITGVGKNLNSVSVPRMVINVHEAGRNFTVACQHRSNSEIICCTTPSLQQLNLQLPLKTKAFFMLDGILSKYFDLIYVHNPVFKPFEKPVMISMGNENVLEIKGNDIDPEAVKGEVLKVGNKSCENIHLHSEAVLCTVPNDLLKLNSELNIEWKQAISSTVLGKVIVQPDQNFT

[5] = target: T1, c-MET on human target cells; experiment: cell-based or functional assay; remark: listed apart in the source
[6] = target: T1, c-MET on human target cells; experiment: cell-based or functional assay; remark: listed apart in the source
[7] = target: T2, AF647 labeled c-met protein; experiment: flow cytometry, EC50 relative to parental Affy6 CAR-T cells (Round 2)
Procedure: Binding of labeled c-MET to CAR-T cells expressing the affinity tuned c-MET scFvs was evaluated by transducing lentivirus anti-c-MET CAR particles into human T cells to form c-MET CAR-T cells incubated with AF647-labeled c-MET. […] Following a 48 hr. incubation at 37° C., the culture media was brought up to […] per well and incubated at 37° C. for 10 days.
Cells were stained on ice for 30 mins and then washed with PBS. After washing, residually bound protein on CAR T cells were measured on a flow cytometer (Beckman, CytoFLEX®). The resulting binding data was fit using a non-linear regression analysis on GraphPad Prism to calculate half effective dose concentration (EC₅₀) values. The results of this analysis are shown in FIGS. 2-5 and Tables 2-5 below.

Row | Binder | cytotoxicity, Normal Human Colon Cells, 8 hrs [1] | cytotoxicity, Normal Human Colon Cells, 16 hrs [1] | cytotoxicity, Normal Human Colon Cells, 24 hrs [1] | cytotoxicity, Normal Human Colon Cells, 32 hrs [1] | cytotoxicity, Normal Human Colon Cells, 40 hrs [1] | cytotoxicity, Normal Human Colon Cells, 48 hrs [1] | cytotoxicity, Normal Human Kidney Cells, 8 hrs [2] | cytotoxicity, Normal Human Kidney Cells, 16 hrs [2] | cytotoxicity, Normal Human Kidney Cells, 24 hrs [2] | cytotoxicity, Normal Human Kidney Cells, 32 hrs [2] | cytotoxicity, Normal Human Kidney Cells, 40 hrs [2] | cytotoxicity, Normal Human Kidney Cells, 48 hrs [2] | percent cytotoxicity, H1993, 24 hrs [3] [%] | percent cytotoxicity, H1993, 48 hrs [3] [%] | percent cytotoxicity, H1993, 72 hrs [3] [%] | EC50 [4] [µM] | cytotoxicity, Normal Human Liver Cells, 8 hrs [5] | cytotoxicity, Normal Human Liver Cells, 16 hrs [5] | cytotoxicity, Normal Human Liver Cells, 24 hrs [5] | cytotoxicity, Normal Human Liver Cells, 32 hrs [5] | other results
1 | B1 | 8.2 | 14.4 | 16.4 | 11.4 | 2 | 10.7 | 10.1 | 17.9 | 17.2 | 15.8 | 10.2 | 14 | 32.5 | 68.1 | 81.6 | 151 | 9.6 | 13.7 | 18.1 | 22.3 | cytotoxicity, Normal Human Liver Cells, 40 hrs [5]: 22.5; cytotoxicity, Normal Human Liver Cells, 48 hrs [5]: 20.5; cytotoxicity, Normal Human Lung Cells, 8 hrs [6]: 14.8; cytotoxicity, Normal Human Lung Cells, 16 hrs [6]: 17.3; cytotoxicity, Normal Human Lung Cells, 24 hrs [6]: 19.5; cytotoxicity, Normal Human Lung Cells, 32 hrs [6]: 18.4; cytotoxicity, Normal Human Lung Cells, 40 hrs [6]: 28; cytotoxicity, Normal Human Lung Cells, 48 hrs [6]: 33.1; Fold Change [7]: 6900 fold
2 | B2 | 18.8 | 22.7 | 27 | 29.9 | 30.9 | 38.6 | 23.6 | 39.4 | 46 | 48.6 | 43.6 | 39.5 | 74.9 | 93.5 | 98.2 | 3.6 | 15.1 | 32.4 | 44 | 52.5 | cytotoxicity, Normal Human Liver Cells, 40 hrs [5]: 52.4; cytotoxicity, Normal Human Liver Cells, 48 hrs [5]: 53.6; cytotoxicity, Normal Human Lung Cells, 8 hrs [6]: 14.3; cytotoxicity, Normal Human Lung Cells, 16 hrs [6]: 20.9; cytotoxicity, Normal Human Lung Cells, 24 hrs [6]: 30.6; cytotoxicity, Normal Human Lung Cells, 32 hrs [6]: 34; cytotoxicity, Normal Human Lung Cells, 40 hrs [6]: 41.2; cytotoxicity, Normal Human Lung Cells, 48 hrs [6]: 42.7; Fold Change [7]: 167 fold
